Biological target: T1, recombinant human p53, N-terminal His tag (human, UniProt P04637 1-393)
T1 construct: human p53, wild type, 393 aa per subunit as printed; plasmid pET15b-His-human p53; also called WT p53; source: E. coli, purified (nickel nitrilotriacetic acid-agarose chromatography)
Assay: co-IP; purified PEPD or a PEPD mutant at 100 nM incubated with p53 at 200 nM in PBS, 100 µl, 2 h, room temperature; then PEPD antibody (2 µg) in 300 µl PBS overnight at 4 °C, protein G-agarose, IB
Details: both partners purified

T1 sequence (P04637 whole entry): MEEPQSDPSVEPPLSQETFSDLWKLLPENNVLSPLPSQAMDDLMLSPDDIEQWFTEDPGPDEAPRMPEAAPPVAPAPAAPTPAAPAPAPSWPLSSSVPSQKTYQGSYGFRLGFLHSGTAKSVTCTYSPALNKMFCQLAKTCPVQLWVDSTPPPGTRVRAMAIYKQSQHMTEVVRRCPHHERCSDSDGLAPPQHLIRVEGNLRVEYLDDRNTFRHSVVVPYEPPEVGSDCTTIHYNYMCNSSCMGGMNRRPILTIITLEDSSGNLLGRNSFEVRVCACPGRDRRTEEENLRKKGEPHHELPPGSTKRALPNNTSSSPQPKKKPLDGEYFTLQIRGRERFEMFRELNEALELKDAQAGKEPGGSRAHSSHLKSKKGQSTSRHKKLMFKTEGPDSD

binding result: binds
B1: recombinant human PEPD^265-493aa, C-terminal His tag (domain or fragment, UniProt P12955 265-493, looked up)
chain: RTIQNGDMCLFDMGGEYYCFASDITCSFPANGKFTADQKAVYEAVLRSSRAVMGAMKPGVWWPDMHRLADRIHLEELAHMGILSGSVDAMVQAHLGAVFMPHGLGHFLGIDVHDVGGYPEGVERIDEPGLRSLRTARHLQPGMVLTVEPGIYFIDHLLDEALADPARASFLNREVLQRFRGFGGVRIEEDVVVTDSGIELLTCVPRTVEEIEACMAGCDKAFTPFSGPK
notes: also called C-terminal 229 aa; source: E. coli, purified (nickel nitrilotriacetic acid-agarose chromatography)

Reference: paper PMC5727116, “PEPD is a pivotal regulator of p53 tumor suppressor” (Nature Communications, 2017)
